Test results: patent US20260008856A1, “METHODS OF TREATING DISEASE USING ANTI-IL1RAP ANTIBODIES AND ANTIBODY DRUG CONJUGATES” (Bluefin Biomedicine, Inc., priority 2022, published 2026)
Residue numbers refer to the chain shown, from its start. Values belong to the molecule of their own block, whether it stands above or below them.

Tests used:
rat IL1RAP = target: T1, rat IL1RAP (Rattus norvegicus, UniProt Q63621); test: Flow cytometry binding to 293 cells expressing rat IL1RAP; format: cell-based; conditions: 1 ug/ml
T1 construct: Met1-Val570; host or cells: HEK-293T
Experimental: (§1) 293T cell line was purchased from American Type Culture Collection (ATCC). 293T cells expressing human, Macaca fascicularis, rat, and mouse IL1RAP were maintained in DMEM medium (Invitrogen) with 10% fetal bovine serum (FBS) (Sigma) in the presence of 2 ug/ml puromycin (Invitrogen).
(§2) Staining for flow cytometry was performed in 1× cold PBS with 0.5% BSA. Primary antibodies (1 ug/ml) were incubated with live cells on ice for 30 minutes, after a brief wash, cells were incubated with Alexa Fluro® 488-conjugated anti-human IgG secondary antibody @1:1000 (709-546-149, Jackson ImmunoResearch). Acquisition of the data was performed on a MACSQuant® Flow Cytometers (Miltenyi Biotec) and analyzed with FlowJo software.

recombinant human IL1RAP = target: T2, recombinant human IL1RAP (Homo sapiens, UniProt Q9NPH3); test: Binding competition binning on Octet; conditions: Protein A biosensors
T2 construct: MBP-IL1RAP(S21-T367)-; 8xHis (C); made in house; host or cells: CHO (ExpiCHO transient expression)
Experimental: Binding Competition binning: Binding competition among different antibodies was determined using a real-time, interferometry assay on an Octet Red™ instrument with Protein A-conjugated biosensors. To assess whether two antibodies competed for binding to a recombinant IL1RAP protein, the assay was performed as follows. Protein A biosensors were first submerged into wells containing 10 ug/mL of individual monoclonal antibodies for 5 minutes. Following the capture step, the biosensors were dipped briefly (15 seconds) into buffer and then any unoccupied sites on the biosensor were saturated by submerging them for 5 minutes into wells containing 100 ug/mL of an irrelevant monoclonal antibody. The Octet™ biosensors were then dipped briefly (15 seconds) in buffer before immersion for 1 minute into wells containing recombinant IL1RAP. The biosensors were dipped briefly (15 seconds) in buffer before immersion for 1 minute into wells containing a second recombinant antibody.
For the control case where the second antibody was the same as the first, there was no increase in signal, because there was no additional binding to the recombinant target.
For the control case where buffer was used instead of the first antibody, no recombinant target bound the non-quenching antibody on the biosensor and no second antibody bound the biosensor.
Selected antibodies were evaluated in pairs for their ability to simultaneously bind recombinant human IL1RAP. The analysis was performed by Octet™ loaded with Protein A Biosensors. A total of five different bins were determined as follows.

MOLT3 = test: Flow cytometry binding to endogenous cell line MOLT3; format: cell-based; parameters: key: (−): No binding; (+): Weak binding; (++): Moderate binding; (+++): Strong binding; conditions: primary antibody 1 ug/ml
Experimental: as §2

Karpas 299 = test: Flow cytometry binding to endogenous cell line Karpas 299; format: cell-based, human; parameters: key to binding to Karpas 299 by flow cytometry: (−): No binding; (+): Weak binding; (++): Moderate binding; (+++): Strong binding; conditions: for binding to Karpas 299 by flow cytometry: primary antibody 1 ug/ml
Experimental: as §2
(§3) Over 1,000 hits were identified that bind strongly to CHO-human IL1RAP, but not parental CHO cells. 68 clones were selected for molecular cloning. Based on unique CDR3 sequences from the heavy chain variable domain, 35 antibodies from 13 families were confirmed by binding in IL1RAP positive cell lines EOL1 and Karpas 299 (see Table 8) by flow cytometry (MACSQuant® www.miltenybiotec.com).

EOL-1 = test: Flow cytometry binding to endogenous cell line EOL-1; format: cell-based, human; parameters: key to binding to EOL-1 by flow cytometry: (−): No binding; (+): Weak binding; (++): Moderate binding; (+++): Strong binding; conditions: for binding to EOL-1 by flow cytometry: primary antibody 1 ug/ml
Experimental: as §2, §3

DMS79 = test: Flow cytometry binding to endogenous cell line DMS79; format: cell-based; parameters: key to binding to DMS79 by flow cytometry: (−): No binding; (+): Weak binding; (++): Moderate binding; (+++): Strong binding
Experimental: as §2

IL-1α signaling = test: IL-1 signaling reporter cell assay, IL-1α; format: cell-based; conditions: serial dilution of antibody
Experimental: (§4) HEK-Blue IL-1β cells (Invivogen, CA) were harvested and plated in technical duplicates at a density of 50,000 cells per well in a 96-well plate. IL1RAP antibodies, or a corresponding human IgG1 control antibody was added to the wells in a concentration range of […]. After incubating cells with antibodies for 30 minutes, IL-1β was added to a final concentration of 0.5 ng/ml, and the plate was incubated overnight. To examine whether any of the antibodies were able to induce IL-1R activation in the absence of IL-1β, samples were incubated with 10 μg/mL antibody without addition of the ligand. The following day, substrate was added to the supernatants, and samples were analyzed for absorbance at 620 nm.
In addition, serial dilution of IL1RAP antibodies was performed to determine EC50 against IL-1β and IL-1α (FIGS. 6B and 6C). Many of these antibodies, including 37E10_15B5 and 44E5_15C5 can block IL-1β and IL-1α signaling with subnanomolar EC50.

IL-33 signaling = IL-33 signaling reporter cell assay (HEK-Blue IL-33 cells); format: cell-based; conditions: antibody 1-10 μg/ml, IL-33 0.5 ng/ml
Experimental: FIGS. 7A and 7B show blockage of IL-33 signaling by anti-IL1RAP antibodies. HEK-Blue IL-33 cells (Invivogen, CA) were harvested and plated in technical duplicates at a density of 50,000 cells per well in a 96-well plate. Antibodies, or a corresponding human IgG1 control antibody, was added to the wells in a serial dilution starting at 10 μg/ml (FIG. 7A), or a concentration of 1 and 10 μg/ml (FIG. 7B). After incubating cells with antibodies for 30 minutes, IL-33 was added to a final concentration of 0.5 ng/ml, and the plate was incubated overnight. 24 hours later, substrate was added to the supernatants, and samples were analyzed for absorbance at 620 nm. CBIgG1 (anti-hen egg lysozyme antibody, CrownBio™) was included as a negative control.
as §4, with “IL-33” for “IL-1β”, “plate.” for “plate. IL1RAP”, “ST2” for “IL-1R”, “IL-33,” for “IL-1β,”

H69 = test: Flow cytometry binding to endogenous cell line H69; format: cell-based; parameters: key: (−): No binding; (+): Weak binding; (++): Moderate binding; (+++): Strong binding; conditions: primary antibody 1 ug/ml
Experimental: as §2

IL-1β signaling = test: IL-1 signaling reporter cell assay (HEK-Blue IL-1β cells), IL-1β; format: cell-based; conditions: for inhibition of IL1R1 / IL-1 signaling: HEK-Blue IL-1β cells, antibody 1-10 pg/ml, IL-1β 0.5 ng/ml
Experimental: as §4

mouse IL1RAP = target: T3, mouse IL1RAP (Mus musculus, UniProt Q61730); test: Flow cytometry binding to 293 cells expressing mouse IL1RAP; format: cell-based; conditions: 1 ug/ml
T3 construct: Met1-Val570; host or cells: HEK-293T
Experimental: as §1, §2

T3 sequence (Q61730 21-570): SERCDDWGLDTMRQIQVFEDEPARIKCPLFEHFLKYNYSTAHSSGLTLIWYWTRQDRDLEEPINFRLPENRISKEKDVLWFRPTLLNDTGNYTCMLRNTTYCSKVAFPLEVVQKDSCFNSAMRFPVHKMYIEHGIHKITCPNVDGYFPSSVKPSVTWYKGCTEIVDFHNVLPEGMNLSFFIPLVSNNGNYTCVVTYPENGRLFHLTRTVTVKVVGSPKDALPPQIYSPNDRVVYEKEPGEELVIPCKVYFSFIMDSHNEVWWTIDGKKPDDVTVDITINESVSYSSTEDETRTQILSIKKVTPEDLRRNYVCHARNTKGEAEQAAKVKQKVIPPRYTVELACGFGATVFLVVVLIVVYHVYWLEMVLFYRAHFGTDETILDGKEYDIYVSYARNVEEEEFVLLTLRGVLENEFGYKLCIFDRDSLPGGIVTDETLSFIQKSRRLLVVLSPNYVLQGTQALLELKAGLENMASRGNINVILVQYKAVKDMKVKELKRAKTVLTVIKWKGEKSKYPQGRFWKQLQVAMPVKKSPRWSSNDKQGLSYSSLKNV
T1 sequence (Q63621 21-570): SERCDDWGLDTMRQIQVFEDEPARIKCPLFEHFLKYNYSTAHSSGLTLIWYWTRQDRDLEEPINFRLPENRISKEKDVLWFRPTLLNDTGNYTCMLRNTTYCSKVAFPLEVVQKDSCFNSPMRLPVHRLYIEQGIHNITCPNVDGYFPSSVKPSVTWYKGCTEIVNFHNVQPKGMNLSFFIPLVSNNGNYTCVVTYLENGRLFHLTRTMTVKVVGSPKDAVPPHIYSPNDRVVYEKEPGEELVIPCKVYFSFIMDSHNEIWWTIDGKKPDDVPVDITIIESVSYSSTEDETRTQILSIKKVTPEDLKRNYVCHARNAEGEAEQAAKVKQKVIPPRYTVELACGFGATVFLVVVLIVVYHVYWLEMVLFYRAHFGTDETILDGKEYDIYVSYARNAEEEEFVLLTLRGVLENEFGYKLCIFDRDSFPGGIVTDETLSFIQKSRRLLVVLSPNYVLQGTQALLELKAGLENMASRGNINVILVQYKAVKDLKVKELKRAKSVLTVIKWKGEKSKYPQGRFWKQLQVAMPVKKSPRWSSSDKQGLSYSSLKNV

B4: 24G3_17C5: human anti-IL1RAP antibody, VH SEQ ID NO: 90, VL SEQ ID NO: 93 (antibody, V domains shown)
VH: EVQLLESGGGLVQRGGSLRLSCAASGFTFSSYAMSWVRQAPGKGLEWVSSISGSGDSTNYADSVKGRFTISRDNSKNTLHLQMNSLRAEDTAVYYCVRDYYYGMDVWGHGTTVTVSS
VL: EIVLTQSPATLSLSPGERATLSCRASQSVNSYLAWYQQKPGQAPRLLIYDASNRATGIPARFSGSGSGTDFTLTISSLEPEDFAVYYCQQRSYWPITFGQGTRLEIK
binding to 293 cells expressing rat IL1RAP (rat IL1RAP): bind
competition for binding, bin (1) (recombinant human IL1RAP): competed with each other
binding to 293 cells expressing mouse IL1RAP (mouse IL1RAP): bind weakly
binding to Karpas 299 by flow cytometry (Karpas 299): (++)
binding to EOL-1 by flow cytometry (EOL-1): (++)

B5: 5D12_18A4: human anti-IL1RAP antibody, VH SEQ ID NO: 163, VL SEQ ID NO: 167 (antibody, V domains shown)
VH: QVQLQESGPGLVKPLGTLSLTCAVSGGSISNSNWWSWVRQPPGKGLEWIGEIYHSGSTNYNPSLKSRVTIALDWSKNQFSLQLRSVTAADTAVYYCARYGSGPFGGDCWGQGTLVTVSS
VL: DIQLTQSPSFLSASVGDRVTISCRASQGISSYLAWYQQKPGKAPKLLIYAASTLQGGVPSRFSGSGSGTTFTLTISSLQPEDFATYYCQQLNTYPFTFGPGTKLEIK
competition for binding, bin (1) (recombinant human IL1RAP): competed with each other
binding to 293 cells expressing mouse IL1RAP (mouse IL1RAP): bind weakly
binding to Karpas 299 by flow cytometry (Karpas 299): (++)
binding to EOL-1 by flow cytometry (EOL-1): (+++)

B6: 38G11_28A2: human anti-IL1RAP antibody, VH SEQ ID NO: 151, VL SEQ ID NO: 154 (antibody, V domains shown)
VH: EVQLVESGGGLVQPGGSLRLSCAASGFTFSSYWMSWVRQAPGKGLEWVANIKQDGSEKHYVDSVKGRFTISRDNAKNSLYLQMNSLRAEDTAVYYCAREGYFGSGYFDYWGQGTLVTVSS
VL: B5 VL with S22T, G56S, T70E, L91Y, N92S, T93F, P95S, F96H, P100Q
binding to DMS79 by flow cytometry (DMS79; primary antibody 1 ug/ml): (−)
binding to Karpas 299 by flow cytometry (Karpas 299): (++)
binding to EOL-1 by flow cytometry (EOL-1): (++)

Now from value to molecule, other results behind:

binding to 293 cells expressing rat IL1RAP (rat IL1RAP): bind
competition for binding, bin (1) (recombinant human IL1RAP): competed with each other
B1: 34C11_21B2: human anti-IL1RAP antibody, VH SEQ ID NO: 40, VL SEQ ID NO: 44 (antibody, V domains shown)
VH: B6 VH with L4V, S30R, K58R, N77T, N84S
VL: DIQMTQSPSTLSASVGDRVIITCRASQSISRGLAWYQQKPGKAPKLLIYKASNLESGVPSRFSGSGSGTEFTLTISSLQPDDFAAYYCQQYSYYSHTFGQGTKLEIK
binding to MOLT3 by flow cytometry (MOLT3): (+)
binding to Karpas 299 by flow cytometry (Karpas 299): (+++)
binding to EOL-1 by flow cytometry (EOL-1): (+++)

competition for binding, bin (2) (recombinant human IL1RAP): competed with each other
EC50 against IL-1α (IL-1α signaling): subnanomolar
EC50 against IL-1β (IL-1β signaling; serial dilution of antibody, reporter assay): subnanomolar
B2: 44E5_15C5: human anti-IL1RAP antibody, VH SEQ ID NO: 71, VL SEQ ID NO: 73 (antibody, V domains shown)
VH: QVQLVESGGGVVQPGRSLRLSCAASGFTFRSHGMHWVRQAPGKGLEWVAVIWYDGSSDYYADSVKGRFTISRDNSKNTLFLQMNSLSAEDTAVYYCARENVYGSGWFFDYWGQGTLVTVSS
VL: EIVMTQSPATLSVSPGERASLSCRASQSVGSNLAWYQQKPGQAPRLLIFGASTRATGIPARFSGSRSGTEFTLTISSLQSEDFALYYCQQYNNWPPWTFGQGTKLEIK
binding to IL1RAP negative cell line DMS79 (DMS79; flow cytometry, FIG. 2): lack of binding
inhibition of IL-33 signaling (IL-33 signaling): partially inhibit
binding to H69 by flow cytometry (H69): (−)
inhibition of IL1R1 / IL-1 signaling (IL-1β signaling): potent inhibition
binding to IL1RAP positive cell line Karpas 299 (Karpas 299; flow cytometry, FIG. 2): specific binding
binding to IL1RAP positive cell line EOL1 (EOL-1; flow cytometry, FIG. 2): specific binding
binding to EOL-1 by flow cytometry (EOL-1): (+++)

competition for binding, bin (1) (recombinant human IL1RAP): competed with each other
binding to 293 cells expressing mouse IL1RAP (mouse IL1RAP): bind weakly
B3: 39G1_21C4: human anti-IL1RAP antibody, VH SEQ ID NO: 56, VL SEQ ID NO: 60 (antibody, V domains shown)
VH: QVQLQESGPGLVKPSETLSLTCAVSGYSASGVYYWGWIRQPPGKGLEWIGNIYHSGSTYYNPSLERRVSISLDTSKNHFSLRLNFVTAADTAVYYCARDRFDAFDIWGQGTMVTVSS
VL: EIVMTQSPATLSVSPGERATLSCRASQSINNILAWYQQKPGQAPRLLIYGASTRATGIPARFSGSGSGTEFTLTISSLQSEDFAVYYCQQYNNWPLTFGGGTKVEIK
binding to MOLT3 by flow cytometry (MOLT3): (+)
inhibition of IL-33 signaling (IL-33 signaling): do not inhibit
inhibition of IL1R1 / IL-1 signaling (IL-1β signaling): do not inhibit
binding to EOL-1 by flow cytometry (EOL-1): (+++)
